The text below walks through data of the supplement of paper PMC9170038.

The subject of data set [1] is MS2 coat protein. In words: apparent KD of MS2 coat protein, switch ON state; designed switch direction (-1 OFF switch, 1 ON switch): 1; higher = weaker reporter binding. To be noted: FMN input: 0 or 200 uM; Eterna round: R93 (includes R88 designs). An outline of the steps:
(§1)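 Values are apparent KD, taken as the median for each design of fits to normalised binding curves from individual clusters. The designed RNA switches were transcribed on-chip from Illumina sequencing clusters and exposed to SNAP-549-labelled MS2 coat protein at twofold increasing amounts from 0.7 or 1.5 nM to 3 µM. Titration used 100 mM Tris-HCl pH 7.5, 80 mM KCl and 4 mM MgCl2, without or with constant ligand.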

In data set [2] the test system is MS2 coat protein. In words: apparent KD of MS2 coat protein, switch OFF state (with FMN for OFF switches, without FMN for ON switches); designed switch direction (-1 OFF switch, 1 ON switch): 1; higher = weaker reporter binding. To be noted: FMN input: 0 or 200 uM; Eterna round: R93 (includes R88 designs). An outline of the steps:
as §1

Take “AAAUAACAUGAGGAUCACCCAUGUUGCAACGGUACAGGAUAUGUGGGUGAAAAUAGCAUGACAGAAGGGUAGUGUA [SameState1 Malc#30]”: the “apparent KD of MS2 coat protein” value with MS2 coat protein [1] worked out at 207 nM; in the data set on MS2 coat protein [2], 150 nM.
As to “AGAAGACAUGAGGAUCACCCAUGUGGGAAUAUGGGAGGAUAUACAAAGACGAGAGUCAGAGUAGAAGGCCUAGGAG [salish99-SS1-093]”, the figures for the “apparent KD of MS2 coat protein” value in the data set with MS2 coat protein [1] and in the data set on MS2 coat protein [2] were 63.3 nM and 150 nM, respectively.
Consider “GAAAAACAUGAGGAUCACCCAUGUAGAAAUAUGGGAGGAUAUACGAAGACGAAAGUCAAAGUAGAAGGCCUAAGAA [Mat - Same State 1 - Eli mod - D109]”, for which the “apparent KD of MS2 coat protein” value turned out to be 21.7 nM in the data set with MS2 coat protein [1] and 87.8 nM in the data set on MS2 coat protein [2].
Turning to “GUGAAGGAGAGAGAGGAUAUCCAAAGGAAAACAUGAGGAUCACCCAUGUAGAAGGUAGGAAAUUGGGAGAAGGCUCAAGAGAGAG [salish99-ss2-114]”, the entries for the “apparent KD of MS2 coat protein” value in the data set on MS2 coat protein [1] and in the data set on MS2 coat protein [2] were 27 nM and 39.5 nM, respectively.
In the case of “UCCUUACAUGAGGAUCACCCAUGUCGCAGGAAUCAAGGAUAUGGGACCGCAAGACGGAAACCAGAAGGUGAAAUAU [Gedizala]”, the “apparent KD of MS2 coat protein” value in the data set on MS2 coat protein [1] is 181 nM; with MS2 coat protein [2] it was 287 nM.
For “CGGAGACAUGAGGAUCACCCAUGUGAGAAGAGGCGAGGAUAUCGAAAGAAAGAAGAGAAACGAGAAGGCGCGAGCU [salish99-SS1-072]”, in that order: 23.1 nM and 27.6 nM.
Consider “AAAAGAGCGACACAGGAUAUGUUGACUCUAACAUGAGGAUCACCCAUGUGCAUUUAGGGUCGUGCGCAGAAGGGUGUAGCUCGGA [Laesbibiti]”, for which the “apparent KD of MS2 coat protein” value in the data set on MS2 coat protein [1] came out at 11.7 nM; in the data set with MS2 coat protein [2], 24.7 nM.
For “AUAAAAUAAAAGGAGGAUAUCCUAAAUAAAACAUGAGGAUCACCCAUGUAAAAAAUAAUAAAAUGGGAGAAGGCCUAAAAUAAAU [SS2 M 25]”, the “apparent KD of MS2 coat protein” value came out at 16.9 nM in the data set with MS2 coat protein [1] and 35 nM in the data set on MS2 coat protein [2].
Regarding “AAAAAAAAAGUCGAGGAUAUCCACAUGGCGACAUGAGGAUCACCCAUGUGAAGAAAAGCACAUGAGGAGAAGGCGACAAAAAAAA [Same State 2.7a (Tightrope mod)]”, the “apparent KD of MS2 coat protein” value amounted to 32.7 nM with MS2 coat protein [1] and 225 nM in the data set on MS2 coat protein [2].
For the sequence “AAAAAACAUGAGGAUCACCCAUGUAGAAACAUGGGAGGAUAUACGAAGACGAAAGUCAAAGUAGAAGGCCUAAGAG [Garnet 89]”, the “apparent KD of MS2 coat protein” value in the data set with MS2 coat protein [1] is 183 nM; in the data set on MS2 coat protein [2], 592 nM.
For “AGAAAACAUGAGGAUCACCCAUGUGACAAUAUGGGAGGAUAUACGAAGACGAAAGUCGAAGUAGAAGGCCUAAAGA [Garnet 50]”, in that order: 23.4 nM and 66.7 nM.
With “UAUAGACAUGAGGAUCACCCAUGUAGAAUUAUGGGAGGAUAUACAAAGACGAGAGUCAGAGUAGAAGGCCUAGGAG [salish99-ss1-153]”, the “apparent KD of MS2 coat protein” value in the data set on MS2 coat protein [1] is 31.8 nM; in the data set on MS2 coat protein [2], 63.4 nM.
For “AAAAAACAUGAGGAUCACCCAUGUAAUACAACAUCAGGAUAUUGGCUUGACUAUGUCUUACAAGAAGGGAUGAAAA [Same State 1.3d (Same State 1 - Omei 2 )]”, in that order: 30.5 nM and 81.5 nM.
Regarding “AGGAAACAUGAGGAUCACCCAUGUAAAAAAUAUGGAGGAUAUACUAGAAGAAACAAAAUAGUAGAAGGCCAAAAAA [75%, Ex sub1, 31]”, the “apparent KD of MS2 coat protein” value in the data set on MS2 coat protein [1] is 15.2 nM; with MS2 coat protein [2] it was 19.4 nM.
For “UUUAAUUGCGGGCAGGAUAUGUAUUAAAAUACAUGAGGAUCACCCAUGUGCGGGUGUAACACCCGACAGAAGGGCCAAUCGCGAC [Bearisan]”, in that order: 64.7 nM and 300 nM.
For “AAAAAAAAAACUCAGGAUAUAGAUUGUAGAACAUGAGGAUCACCCAUGUAGUGAAAGAAGAGAGACUAGAAGGGAGUAAAAAAAAA [Same State 2 #3]”, the “apparent KD of MS2 coat protein” value is 43.2 nM in the data set on MS2 coat protein [1] and 69.1 nM in the data set on MS2 coat protein [2].
For “AACAAUCUAUCUGAGGAUAUCAUGUCAAAGACAUGAGGAUCACCCAUGUCUAGGAAAACUAGAUAUGAGAAGGCAGAUAGAUUGA [SS2 :P - 597]”, in that order: 23.2 nM and 126 nM.
In the case of “AGGAGACAUGAGGAUCACCCAUGUGAGAAGAGGCGAGGAUAUCGAAAGAAAGAAGAGAAACGAGAAGGCGCGAGGA [salish99-SS1-019]”, the “apparent KD of MS2 coat protein” value in the data set with MS2 coat protein [1] came to 29.8 nM; in the data set on MS2 coat protein [2], 58.5 nM.
For “AAAAAACAAAGAGAGGAUAUCCUGAAAAAAACAUGAGGAUCACCCAUGUAAAGAAAUUUAAAAUGGGAGAAGGCUCUUUGAAAAA [Same State 2.6c ( Helter Skelter 1)]”, in that order: 24.6 nM and 22.3 nM.
